Results: publication PMC6582607, “Development of a novel ssDNA aptamer targeting neutrophil gelatinase-associated lipocalin and its application in clinical trials”

B1: NA42 (ssDNA)
DNA: AGCAGCACAGAGGTCAGATGCCGTGCGGATGTACAGGGACTTGGATAGTTTCTGACCTATGCGTGCTACCGTGAA
B2: NA36 (ssDNA)
DNA: AGCAGCACAGAGGTCAGATGCCCATATGCTACTTTGCACACATCCTGGATAGGCTCCTATGCGTGCTACCGTGAA
B3: NA53 (ssDNA)
DNA: AGCAGCACAGAGGTCAGATGGCGCTGGATAGCAAGATCACGTTATCATCGTAAACCCTATGCGTGCTACCGTGAA
B4: NA37 (ssDNA)
DNA: AGCAGCACAGAGGTCAGATGCCCATATGCTACTTTGCACACATCCTGGATAGGCTCCTATGCGTGCTACCGTGAA
B5: NA40 (ssDNA)
DNA: AGCAGCACAGAGGTCAGATGGCGCTGGATAGCAAGATCACGTTATCATCGTAAACCCTATGCGTGCTACCGTGAA
B6: NA39 (ssDNA)
DNA: AGCAGCACAGAGGTCAGATGGCGCTGGATAGCAAGATCACGTTATCATCGTAAACCCTATGCGTGCTACCGTGAA
B7: NA27 (ssDNA)
DNA: AGCAGCACAGAGGTCAGATGGCGCTGGATAGCAAGATCACGTTATCGTCGTAAACCCTATGCGTGCTACCGTGAA

The binders below were run against T1, NGAL (neutrophil gelatinase-associated lipocalin) (UniProt P80188 21-198) (assay: magnetic bead pull-down, qPCR; binding buffer (composition and pH not in material), room temperature, 1 h, NGAL-coated magnetic beads (about 0.20 ug NGAL per uL beads)).
T1 sequence (P80188 21-198): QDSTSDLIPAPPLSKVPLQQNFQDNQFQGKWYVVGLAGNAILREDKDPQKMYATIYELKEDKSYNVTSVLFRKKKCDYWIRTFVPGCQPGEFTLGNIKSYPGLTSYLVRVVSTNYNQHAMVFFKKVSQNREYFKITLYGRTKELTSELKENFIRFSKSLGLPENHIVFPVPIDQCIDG
Binder B1 has a Kd of 66.5 nM. With B2 the Kd was 43.6 nM. Binder B3 has a Kd of 32.5 nM.

What follows are binders tested against T1, NGAL (neutrophil gelatinase-associated …) (assay: magnetic bead pull-down, qPCR; 20 nM; binding buffer (composition and pH not in material), room temperature, 1 h, NGAL-coated magnetic beads (about 0.20 ug NGAL per uL beads)).
For B4, the binding signal was > 4 dCt (cycles vs bare beads). For B5, the binding signal was > 4 dCt (cycles vs bare beads). In the case of B6, the binding signal is reported as > 4 dCt (cycles vs bare beads). B7 was tested, and the binding signal was > 4 dCt (cycles vs bare beads).
